# Results taken from PMC7210009.
# Where two headings read alike, the source gives them in different places.
substance,measurement,setting,value
"PFKP (phosphofructokinase, platelet isoform): AKT inhibitor X (10 μM, 15 hrs)",expression_or_secretion,phosphorylation at S386,no change
"PFKL (phosphofructokinase, liver isoform): K272R",degradation_or_half_life,ubiquitination at K272,decreases
"PFKP (phosphofructokinase, platelet isoform): S386A",degradation_or_half_life,phosphorylation at S386,no change
"PFKP (phosphofructokinase, platelet isoform): K281R",degradation_or_half_life,ubiquitination at K281,decreases
